Experimental data from patent US8975044B2, “Polynucleotides encoding for frizzled-binding agents and uses thereof” (OncoMed Pharmaceuticals, Inc., priority 2008, dated 2015).

Key:
[1] = tested on: OMP-Pn4 pancreatic tumor xenografts; assay: OMP-Pn4 pancreatic tumor xenograft growth; type: in vivo, NOD/SCID mice; details: 10 mg/kg IP once weekly
Description: In another embodiment, anti-FZD antibodies were analyzed for their ability to reduce the growth of OMP-Pn4 pancreatic tumor xenografts. NOD/SCID mice were purchased from Harlan (Indianapolis, Ind.) and allowed to acclimate for several days prior to the studies. The establishment and characterization of in vivo cancer stem cell-driven pancreas xenograft models were described previously (Li et al., Cancer Res., 67:1030-7, 2007). For efficacy studies, OMP-Pn4 human pancreatic tumor cells were dissociated into single cell suspensions, resuspended in 1:1 (v/v) mixture of FACS buffer (Hank's balanced salt solution [HBSS] supplemented with 2% heat-inactivated fetal bovine serum and 20 mM Hepes) and Matrigel (BD Bioscience, San Jose, Calif.) and implanted subcutaneously into the right flank region of 6-7 weeks old male NOD/SCID mice with a 25-gauge needle containing 50,000 cells/100 μL. Tumor growth was monitored weekly and tumor measurements were initiated once tumors were palpable. […] Tumor growth was measured by with an electronic caliper (Coast Tools Company, San Leandro, Calif.). Tumors were measured once a week and tumor volume was determined using the formula ½(a×b^2); where a=length (longest axis of the tumor), and b=breadth (shortest axis of the tumor). […] Data are expressed as mean±S.E.M. Differences in mean values between groups were analyzed by non-parimetric t test. […]

Wnt target genes = assay: qPCR of Wnt target genes in duodenum of OMP-PN13-bearing mice; type: in vivo, NOD/SCID mice
Description: Frozen OMP-PN13 tumor cells that have been passaged twice in mice were obtained from Oncomed's tumor bank. They were thawed and injected subcutaneously into the left flank of NOD/SCID mice immediately following thawing. ˜ 25,000 viable cells were injected per animal. The mice were monitored weekly for tumor growth. After their onset, the size of the tumors was measured once weekly by caliper. 200-300 mm^3 tumor-bearing mice were dispatched in treatment groups that each contained 5 animals. […] Ab treatment was initiated the day after randomization. LZ1 was used as the negative control Ab. 3 doses of 10 mg/kg of Ab were administered via intra-peritoneal injection over a 12-day period. Mice were euthanized 24 hours after the last injection. Tumor, duodenum and liver were harvested.
Total RNAs were also extracted from tumor, duodenum and liver for Wnt target gene expression analyses using qPCR.
Tissues were immediately transferred into RNAlater (QIAGEN) at the time of harvest. RNA was extracted using the QIAGEN RNeasy for Fibrous Tissue mini kit according to the manufacturer instructions. […] All 5 tumors of each treatment group were analyzed. […] ABI SDS 2.2.1 software was used to analyze the data and calculate DeltaCt values that were converted into relative quantities. […] Fold inhibition factors were then calculated relative to control antibody (LZ1).

PN4 pancreatic tumor = PN4 pancreatic tumor recurrence study; type: in vivo, Nod-Scid mice; details: gemcitabine 75 mg/kg once per week for 5 weeks, then antibody 10 mg/kg once per week
Description: PN4 pancreatic tumor recurrence study with 18R5 mAb: PN4 pancreatic tumor cells were injected into Nod-Scid mice and allowed to grow until the tumors had reached approximately 250 mm^3. The animals were given gemcitabine (75 mg/kg, once per week) for 5 weeks until tumors had regressed. The animals were randomized into two groups and given control antibody (black squares) or anti-FZD 18R5 (gray open circles). Antibodies were dosed at 10 mg/kg once per week.

PE13 breast tumors = assay: PE13 breast tumor limiting dilution assay (LDA); type: in vivo, mice; details: antibody 20 mg/kg once per week; 50, 150 or 500 cells re-injected, 59 days; L-calc
Description: PE13 breast tumor limiting dilution assay (LDA) study with 18R5 mAb: Animals bearing PE13 breast tumors were treated with either control antibody (gray circles), 18R5 (open triangles), taxol (black circles), or the combination of taxol and 18R5 (open squares). Taxol was dosed at 15 mg/kg twice per week and the antibodies were dosed 20 mg/kg once per week. Tumors were harvested and the human tumor cells were purified by lin depletion. 50, 150, or 500 tumor cells were injected into a new cohort of mice (n=10 per cell dose). Tumor growth frequency was monitored after 59 days and used to calculate the CSC frequency (L-calc).

[2] = tested on: OMP-LU33 human lung tumors; assay: OMP-LU33 lung tumor xenograft growth; type: in vivo, NOD-SCID mice; details: antibodies 10 mg/kg IP twice per week
Description: 10,000 OMP-LU33 human lung tumor cells were injected subcutaneously in NOD-SCID mice. Tumors were allowed to grow for 30 days until they reached an average volume of 124 mm^3. The animals were randomized into 4 groups (n=10 per group) and treated with either control antibody (squares), Avastin® (triangles pointing down), anti-FZD 18R5 (triangles pointing up), or the combination of 18R5 plus Avastin® (circles).

Wnt signaling = assay: 8xTCF luciferase reporter assay in STF293 cells with Wnt-overexpressing HEK293 cells; type: cell-based, human; details: 20 μg/ml; Wnt1, Wnt2, Wnt3, Wnt7A, Wnt7B, Wnt10B, Wnt3A inhibited; 18 hours
Description: In further experiments, the ability of the 18R8 antibody to antagonize signaling by different Wnt ligands was determined. HEK 293 cells were transfected with Wntl, Wnt2, Wnt2b2, Wnt3, Wnt3a, Wnt7a, Wnt7b, Wnt8a, Wnt9b, and Wnt10b for forty eight hours by Fugene 6 (Roche). Wnt3A conditioned medium (“WNT3ACM”) was used as a positive control of activation. STF293 cells, were cultured in DMEM supplemented with antibiotics and 10% FCS and treated with 20 μg/ml 18R8 antibody or no antibody. The Wnt-overexpressing HEK293 cells were then added. Eighteen hours following treatment, luciferase levels were measured using a dual luciferase assay kit.

B1: 18R5: human anti-FZD antibody; VH SEQ ID NO:10 (as 18R8), VL SEQ ID NO:14; binds FZD1, 2, 5, 7, 8 (antibody, V domains shown)
VH: EVQLVESGGGLVQPGGSLRLSCAASGFTFSHYTLSWVRQAPGKGLEWVSVISGDGSYTYYADSVKGRFTISSDNSKNTLYLQMNSLRAEDTAVYYCARNFIKYVFANWGQGTLVTVSS
VL: DIELTQPPSVSVAPGQTARISCSGDNIGSFYVHWYQQKPGQAPVLVIYDKSNRPSGIPERFSGSNSGNTATLTISGTQAEDEADYYCQSYANTLSLVFGGGTKLTVLG
modifications: 18R5/18R8 heavy chain variable region (VH); 18R5 light chain variable region (VL)
- tumor growth, monotherapy [1]: did not result in a significant reduction in tumor growth
- duodenum Lgr5 (Wnt target genes; fold relative to control antibody LZ1, 3 doses of 10 mg/kg over 12 days): −2.6x
- Wnt target gene in the duodenum (Wnt target genes; relative to LZ1): unaffected
- tumor recurrence after gemcitabine treatment (PN4 pancreatic tumor): delay tumor recurrence
- breast cancer stem cell frequency (PE13 breast tumors): Reduction of breast cancer stem cell frequency
- xenograft tumor growth [2]: inhibits OMP-LU33 xenograft tumor growth

B2: 18R8: human anti-FZD antibody from phage display; VH SEQ ID NO:10, VL SEQ ID NO:12; binds FZD1, 2, 5, 7, 8 (antibody, V domains shown)
VH: B1 VH
VL: DIELTQPPSVSVAPGQTARISCSGDKLGKKYASWYQQKPGQAPVLVIYEKDNRPSGIPERFSGSNSGNTATLTISGTQAEDEADYYCSSFAGNSLEVFGGGTKLTVLG
modifications: 18R5/18R8 heavy chain variable region (VH); 18R8 light chain variable region (VL)
- inhibition of signaling by different Wnt ligands (Wnt signaling): inhibit signaling of a variety of Wnts
